The record followed here is the DeepSol protein solubility set.

A short description of the data set: soluble on expression in E. coli; label from the status in PepcDB or PDB records.
Turning to “MGSDKIHHHHHHMTEQFNINQFNCSISGKGQTLIWAHGSTGCIQSEDAIGLYAWHRFPKKLQLIRYDAVGHGLSSAGKCVEDYLWPELANDMISVATHCKATSELILGGQSMGSATSLYAALKHPGMVKGLILMNPPNAWHSRAAQVDEYHKMAKAARIFGGKGLAKISAKHWDKLLPNWLINGHEHSVLGMLDGLKQMTSQTLDQLFRAAALNDLPNKQLLSGLTMPTLILAWHGDKTHPVETAIELHQTLPNSTLHIADSVDEVNEWPELISEFCFRL”, the “soluble on expression in E. coli” value is recorded as “not soluble”.
As to “MSLVEELLKITLKSDELHRRLGGGIPAGTIMLIEGDRGTGKSILSQRLLYGFLMNGYTSSYVSSQYTTVEYIKQMMSISYDVIPFLIRKKLVFVSLYPLLSGVSEERKFLSRLLGEPRLWDQDVVIIDSFSSVLSREQDVRAVRNFLMYIKKLSSLGKVIILTANPEELSRDVMFLLEEASTLLIRLNVRVFGGDLKNSATIVKYNNAKGAFQKIIPFRVEPKVGLVVEIAAVVEGHHHHHH”, the “soluble on expression in E. coli” value is recorded as “soluble”.
Consider “MGSDKIHHHHHHMIEMTRMAACAAVHHDTQATQTGAAYAPAEQGGEPRESSASAYFWVGIDAGGSHCRALLTDDSGQVLGHGVAGPANPVNGVSQSQAAIMSAIDKALGAARLDKQYHRLIVGAGLAGLHLPKMQQVMNEWAHPFAAWHTTTDLHVAALGAHQGADGGVIILGTGFSSLANVKGQQILIGGHGFPINATCSGSWFGLEAVKAVLLDADGIGPGTSLTGKLLQGTNAMALAEQLMHANATDFARFAPQVFEQAGAGDAVSLSLIEQGATFINGVIRRLLATGIDSLSLVGGIAPLMQPWLAPDLSTRIRTAKASPEEGAILFARQCHVGNSRIQER”, for which the “soluble on expression in E. coli” value is listed as “not soluble”.
In the case of “GPGSMSEPHVPTAAAQQPSAEATANAALTADSTVHTSPQAPPPPAASGASTVSANVAEVKSVTATLSDVADSTEPLLVGKVVSSEIAQARSQPCTSDLNTAQSGAGAPVDANVGEQDRCSPPAKSTSSSSSSHSGEESSDEAADFETKELMFAFGRYVGQVNPQTGLRHGHGCQYYNNGNVYTGEWRDGAPDGFGEKRYRNGDVYRGNWRQGKRSGRGVYLFVQGDTYEGMYADDKPEGQGTYATLKGDRYTGQWKAGQRHGTGRETLANGQVFVGNWRYGKKQGRGKLYLPGSEKCIYGIWNNDRFFRELTANEMGADGAEDVVDELGTQRRPSALSVALPGAKAPPPSASLADRVRMGVTALENRMESLGKALERVITGGDGDESAHVPRAAAMGAASSTAGDVAVSEECTEPPAQGFVVNSHQANDEDGEQG”, the “soluble on expression in E. coli” value is listed as “soluble”.
For “MSDVAETVVAQEPEVVEPVEEKPTETGSDDVVVIDEKTSEQNGEKTEETQAEATEEKNETEAEEADKDKAVENGEAKDTNGNDRKRVSSAHEEAPVADAEEDAPLTKKSKVEDEVDVAASGDAPAVAAE”, the “soluble on expression in E. coli” value was “soluble”.
The entry for “AHHHHHHGSIWEEILNFEPYRAVEGNYRIWLDKNESPYDLPPQLKEEILEELKRIEFNRYPHITSDPLREALAEFYGLKKENIAVGNGSDELINYLVKMFKGKYIVVTSPTFGMYSFFAKLHGIPVKDIPLKEDFTIDGERIAEEGKAASAIFIASPNNPTGNSQPENEVLKVLDSGRVVILDEAYSEFSGKSFIPKISEYENLVILRTFSKAFGLAGIRCGYMIANEKIIDALYRILPPYNLNSLTMTVAIKMLEHYDIVKRRIKLIVKERERIRREFIEYSYPSEANFLLMKLDAYDYLLKKGIVVRKLSGRLEGHIRVTIGKKWENDELIKALKEFLEECRCG” is “soluble”; for “MAHHHHHHMALPPATLQSPAVPDGQQHLGCSGGSGHLSVAALDQSRTPLYSAERRASLCDESGALAAVSLSADASRPTAANFVKGELIGKGSYGAVYRGMQRSNNRIIAMKEIRLPGVVEQQLRQSEKLAATAASPAGVSSPVLPASNSVKGESALAKEVAAIKRELTLLKQLNHPNIVRYLNDEVVDGTLRIYMDYVSGGSVTAALKSYGSFEEPQAAALCFQLLQGLVYMHRRGIIHRDLKGDNLLLETSSQLKIADLGTAKSIFSSATMTTSIVGTAYFMAPEVLQPSGAAVGTAADIWSVGCCLIEMMTGKPPLSDLPNQFTVMMAIGGSATVPLDKYIPADNTWSDEVLDFISQCLRANPAQRPTAVDLLQHSWFAKFLNVMHAPSMSTPATLDSMLTPTAPPIERPFTLSPQRQMVSPICSPNLTAALTPGYAGPQYSSGQPESSASSHTSRERKGKRDKRVSARRHARYSTSGATSATSRRSQESSQASTPQYSSGTRTRDGSAQSASLPRSHSHPGRQQGPSSKRRAHAHIVGHGLPRDDSRQSFSSEQAMPQHTCTPGSGGAGDGSGENKTKTAFLPAITHNGSVAPSPCGYSLDVSRCSRSLKNSGSSREPTKACLYTTDTENKS” it is “not soluble”; for “MAHHHHHHSLKDKPLKLTVEKLVYGGYGFSRLNGKAVFVRFASPKELVEAKVVKEKKDYTEAVVTKVLISSPARRKAPCPYYGECGGCQIQHLNYEEQLRSKKDILLESLERIGKIKEVPYEGEIPSKKEFNYRVRVQFKIQENRVGFYRWDVKEVVDVEECLLAHERINELIPHIREVLKVIKDLQEVHVNYSPTRDEATLKFVTITHTDEKLLQNILENVLPEWVVGIGDYGKVGNSLVKRYKVGREHIFMDVGKWQYRVSNDSFFQVNYTLWEDFLKEVLDFSESYKKGLDLHCGVGFFTIPLSEQGNFIEGADANPSAIKDAEYNAKINNRDNVIFEEATAFKHLKRRIGEVINLVVVDPPRSGLLREERDLLLKNKPDKIVYISCNPTTFARDLKILTKGGYELKRLKLIDNFPQTYHIESIALLEVKDEG” it is “soluble”.
For “CPECDEPLHYIRDAVSEKLEYIPAHFVVNRYVRPQYSCPCCQKVFSGEMPAHILPKSAVEPSVIAQVIINKYGDHLPLYRQQQVFARSDVGLPVSSMADMVGAAGAALSPLAALLHRELINRPVVHADETTLKILNTKKGGKSCSGYLWAYVSGERTGPSVVCFDCRTGRSHEYPENWLQGWGGTLVVDGHKAYRTLANKV”, the “soluble on expression in E. coli” value is “not soluble”.
Turning to “MSLKVFQFKDWAVACDNIRHCEANGTQAGDGDNPVSLLLSRDAGPGSRLSAQLDVDDPDGDKVGKLTLKVGRIKWTGIDAEQAFSDAQTTQLLAAMLDADEVALADGKREWTLSLAGLKAALLKMDDVQGRVGTVGALVKKGGKPESAAPAAQPAPLLVPLAPPAARPGDQKLLPAILKQLRAVDKACWDELPDAEHPDVQLYRLSASQVLVLRECGRGAYQGSYKAWTSGDAPPFHPREVPLRGSDGKETFLMNASFDKGELSSYAKGRGIGDCGSGASWAWTGKDFKLMSAQEAPQCRGIAGGVSLRTWVTRQKEGHHHHHH”, the “soluble on expression in E. coli” value was “soluble”.
Consider “MQQASHPTVILGGGFAGLFTALHLSQQNYSYPIILIEQRDRFSFKPLLYELLSGELHSQQVYPRYQELLAGSKVKFVQDTVQSIDIHQQRVDTVSGQAFHYSNLILALGSKTTYFATPGAAEYAMPFTSGEQAIALRQHLRHKLYQAIQTSDSERRRLLLTVAIIGAGPSGIELACTLADLLPIWYDELGGDGSEIHVVLVNRSREILKGDVNSHLRCTVERAMKNRLIPVDFLFDAAVTKITPDGVECRRHGQIQMLQAGTIAWTAGTAPHPLLMELPVSQNRGRLLVKPTLQLSNFPEIFAAGDCATDSDHPQPPTAQVAYQQGIAIAQNLQRISQNKPTIPVQLEHHHHHH”, for which the “soluble on expression in E. coli” value was “not soluble”.
The entry for “MPADTRPAAIVLMGPTASGKSQLAIDIAKRWGGEVISVDSVLVYRGLDIGTAKPNAAMRASVPHHLIDICEPWETYSAADFAHDARAAIDMIVRRGALPILTGGTGLYFRALLAGLSDMPPAHPEIRAMIAAEAKRDSWAALHTRLAEVDAITAARIHATDPQRIQRALEVYLVSGQSMSDWQNQPPKQRLPLRVLKLVLAPTHRKVLHFRIAQRFKAMLDNGLLAEVNALRTHPSIHAMARPLDLPAMRAVGYRQCWEHLDGMYTAEMLYQRSVAATRQLAKRQLTWLRGELDALWFDPEHDQSRIEKVMEAFLNRLEHHHHHH” is “not soluble”.
Turning to “MAHHHHHHMSVATEMKVEEGIHLCGDQEFKLEDISSCVSEIFEKKKKYENIPFIQVAPMINVTNRHFRALVRTITRRAQVWTEMIVDNTLLYNLNNLEEHLGFNSNEHPIVCQLGGSDATSLAEAAVLVEQAGYDEINLNVGCPSTKVANKGAFGAYLMKKPEHVRNIVYEIKRKVHIPVSVKIRTGVDDCDSFPFLRSFVECISSVGCSHFIVHARKAWLKGLDPKQNRSVPPLEYPKVYSLCQLYPHLKFTLNGGVKTVEEAVALLNGYLPKKGNVDSEKTYVQVKNYQVNPLHGVMLGRACMENTTVLSQTDQLVYNEKPPHTAFSRRTVLDAYKSYLEENSSLCSLSSAFELLKPVLGILKGMPGHRIFRNKLDMYIRNYASTLPCSGILEKAMVDVDAVAPGCLDLPLADYKLQQEYIKNY”, the “soluble on expression in E. coli” value is on record as “not soluble”.
As for “MSLYKDDSLTLHTDLYQINMMQVYFNQGIHNKRAVFEVFFRKEPFANGYAVFAGLERMIAYLQGLSFSETDIAYLEELGYPADFVAYLKEFKLELSVKSAKEGDLVFANEPIVQIEGPLAQCQLVETAILNIVNFQTLIATKAARIRSVIEDEPLLEFGTRRAQEMDAAIWGTRAAVIGGANATSNVRAGKLFGIPVSGTHAHALVQAYGNDYDAFMAYAGTHKDCVFLVDTYDTLRLGVPAAIRVASELGDKINFLGVRIDSGDMAYLSKKVRKLLDEAGYPHAKIYASNDLDENTILNLKMQKAKIDIWGVGTKLITAYDQPALGAVYKIVSIEDDNGVMQDTIKLSNNAEKVSTPGKKQVWRITSRAKGKSEGDYITFTDTDVNSLDEIDMFHPTYTYINKKVRDFDAVPLLVDIFDQGKLVYTQPSLSDIQDYARREFDKLWDEYKRVLNPQDYPVDLACDVWQNKVNLIDRIRKEAYEKGDVKEGHHHHHH”, the “soluble on expression in E. coli” value is given as “soluble”.
For the sequence “MGSDKIHHHHHHMIKLIATDIDGTLVKDGSLLIDPEYMSVIDRLIDKGIIFVVCSGRQFSSEFKLFAPIKHKLLYITDGGTVVRTPKEILKTYPMDEDIWKGMCRMVRDELPACDYFAATPDFCFAEDGGSPIFHLLRDSYGFEMREVDDITRLDRNDIIKFTVFHPDKCEELCTPVFIPAWNKKAHLAAAGKEWVDCNAKGVSKWTALSYLIDRFDLLPDEVCCFGDNLNDIEMLQNAGISYAVSNARQEVIAAAKHTCAPYWENGVLSVLKSFL”, the “soluble on expression in E. coli” value is recorded as “not soluble”.
For the sequence “SEKTQETVQRILLEPYKYLLQLPGKQVRTKLSQAFNHWLKVPEDKLQIIIEVTEMLHNASLLIDDIEDNSKLRRGFPVAHSIYGIPSVINSANYVYFLGLEKVLTLDHPDAVKLFTRQLLELHQGQGLDIYWRDNYTCPTEEEYKAMVLQKTGGLFGLAVGLMQLFSDYKEDLKPLLNTLGLFFQIRDDYANLHSKEYSENKSFCEDLTEGKFSFPTIHAIWSRPESTQVQNILRQRTENIDIKKYCVHYLEDVGSFEYTRNTLKELEAKAYKQIDARGGNPELVALVKHLSKMFKEENE”, the “soluble on expression in E. coli” value was “soluble”.
As for “MASETSQFGIETDSITLQRYVLQEQRKHADASGELTALLTNMLVAIKAIASATQKAGLAKLYGIAGATNVQGEEVKKLDVLSNELMINMLKSSYTTCLLVSEENDELIEVEEQRRGKYIVTFDPLDGSSNIDCLVSIGTIFGIYKKRGDGPATVDDVLKPGKEMVAAGYALYGSATMVVLSTGDGVNGFTLDPSIGEFILTHPNMKCKEKGSIYSLNEGYAQTWSKGFAEYIRTRKYPEAGKKAMGQRYVGSMVADVHRTILNGGIFLYPPTVSAPNGKLRLLYECNPMAYIIEQAGGLATTGKERILDIQPTQIHQRAPIILGSKLDVEEALEYLAKYDN”, the entry is “not soluble”; as for “MEQMRFKPRPFVKPVKFKCKFCLDCCKGRHVYLTLNDIKRLIDAGYDPQDFLTISIEDGKIRFVLSVREWDLGCVFQDPETGLCKVHPHRPLICRIYPFMVSKKPLGIKGEKKFEINGKSFWLYYDENCPGINDEDGDTITPEEILKLGIKFEEELEATDLDGFLKILRSLEHHHHHH”, “soluble”.
